Measurements taken from patent US20170260289A1 (Novo Nordisk, published 2017).
Where a chain is given by its changes, count along the chain named. In names and notes the source's numbering stands.

B1: mAb 0421 (bispecific antibody, human IgG1, kappa)
heavy 1: not shown
light 1: DIVMTQTPLSLSVTPGQPASISCKSSQSLLESDGKTYLNWYLQKPGQSPQLLIYLVSILDSGVPDRFSGSGSGTDFTLKISRVEAEDVGVYYCLQATHFPQTFGGGTKVEIKRTVAAPSVFIFPPSDEQLKSGTASVVCLLNNFYPREAKVQWKVDNALQSGNSQESVTEQDSKDSTYSLSSTLTLSKADYEKHKVYACEVTHQGLSSPVTKSFNRGEC
heavy 2: not shown
light 2: GIVMTQSQKFMSTTVGDRVSITCKASQSVGPAVAWYQQKPGQSPKLLIYSASNRYTGVPDRFTGSGSGADFTLTISNLHSEDLADYFCQQYTSYPTFGGGTKLEIKRTVAAPSVFIFPPSDEQLKSGTASVVCLLNNFYPREAKVQWKVDNALQSGNSQESVTEQDSKDSTYSLSSTLTLSKADYEKHKVYACEVTHQGLSSPVTKSFNRGEC
notes: Full length human IgG1 format, made by controlled Fab-arm exchange; also called asymmetric bispecific antibody derived from mAb 0310 and mAb 0336
B2: BiFab 9041 (bispecific antibody)
heavy 1: EVQLVESGGGLVKPGGSLRLSCAASGFTFSNYAMSWVRQTPEKRLEWVATISRSGSYSYFPDSVQGRFTISRDNAKNSLYLQMNSLRAEDTAVYYCARLGGYDEGDAMDSWGQGTTVTVSSASTKGPSVFPLAPCSRSTSESTAALGCLVKDYFPEPVTVSWNSGALTSGVHTFPAVLQSSGLYSLSSVVTVPSSSLGTKTYTCNVDHKPSNTKVDKRVESKYGPPC
light 1: B1 light 1
heavy 2: QVQLKQSGPGLVQPSQSLSITCTVSGFSLTNYGVHWVRQSPGKGLEWLAVIWRGGSIDYNAAFMSRLSITKDNSKSQVFFKMNSLQADDTAIYYCAKNSHGNYVGYAMDYWGQGTSVTVSSASTKGPSVFPLAPCSRSTSESTAALGCLVKDYFPEPVTVSWNSGALTSGVHTFPAVLQSSGLYSLSSVVTVPSSSLGTKTYTCNVDHKPSNTKVDKRVESKYGPPC
light 2: B1 light 2
modifications: C-terminal cysteine linked through the bis-maleimide linker to the C-terminal cysteine of the other Fab's heavy chain; C-terminal cysteine linked through 1,16-bis(2,5-pyrroledione-1-yl)-4,13-diaza-7,10-dioxa-3,14-dioxohexadecane to the C-terminal cysteine of the other Fab's heavy chain
notes: also called Fab 0088 conjugated to Fab 0295
B3: mAb 2007 (antibody, V domains shown)
VH: EVQLVESGGGLVKPGGSLRLSCAASGFTFSNYAMSWVRQAPGKGLEWVSTISRSGSYSYYPDSVKGRFTISRDNAKNSLYLQMNSLRAEDTAVYYCARLGGYDEGDAMDSWGQGTTVTVSS
VL: DIVMTQTPLSLSVTPGQPASISCKSSQSLLESDGKTYLNWYLQKPGQSPQLLIYLVSILDSGVPDRFSGSGSGTDFTLKISRVEAEDVGVYYCLQATHFPQTFGGGTKVEIKR
notes: Grafted HzTFPI4F36 with a single A60P (Kabat) back mutation in VH
B4: mAb 2000 (antibody, IgG4, V domains shown)
VH: B3 VH with P61A
VL: B3 VL
notes: Human kappa/IgG4 (S241P); also called initial grafted HzTFPI4F36 variant

Columns and labels:
[1] = target: T1, human TFPI alpha (full-length TFPIα) (human, UniProt P10646 29-304); assay: cell-based or functional assay
[2] = target: T2, endogenous TFPI of human plasma (human, UniProt P10646 29-304, limits assumed); assay: cell-based or functional assay
[3] = target: T1, human TFPI alpha (full-length TFPIα); assay: cell-based or functional assay; remark: listed apart in the source
[4] = target: T2, endogenous TFPI of human plasma; assay: cell-based or functional assay; remark: listed apart in the source
[5] = target: T3, TFPI (1-79) fragment, N-terminal and KPI-1 domain of TFPI with an N-terminally attached GSSGSSG tag (human, UniProt P10646 29-107); assay: SPR (Biacore T200), bispecific captured by anti-Fab kappa antibody, antigen as analyte, 1:1 Langmuir fit
T3 construct: also called tagged TFPI KPI-1/N-terminal; TFPI KPI-1
Description: (§1) Binding studies were performed on a Biacore T200 (GEHealthcare) that measures molecular interactions in real time through surface plasmon resonance. Experiments were run at 25° C. and the samples were stored at 15° C. in the sample compartment. The signal (RU, response units) reported by the Biacore is directly correlated to the mass on the individual sensor chip surfaces in four serial flow cells. Goat anti Fab Kappa Light Chain antibody (Nordic Biosite) was immobilized onto all four flow cells of a CM4 sensor chip according to the manufacturer's instructions. Capture of purified bispecific molecules was conducted by diluting the proteins into running buffer (10 mM Hepes 0.3 M NaCl, 5 mM CaCl₂, 0.05% surfactant P20, 10 mg/ml BSA, pH 7.4) and injected over flowcell 2, 3 or 4, creating a reference surface in flow cell 1 with only anti-Fab antibody immobilized. […] Binding of TFPI FL (SEQ ID NO: 1), TFPI (1-79), and TFPI KPI-2 proteins was conducted by injecting analyte (antigen) over all flow cells to allow for comparative analyses of binding to different captured bispecific molecules relative to binding to the reference surface. The TFPI (1-79) fragment spans the N-terminal and KPI-1 domain of TFPI with an N-terminally attached GSSGSSG tag (SEQ ID NO: 16). The TFPI KPI-2 fragment spans the KPI-2 domain of TFPI with a C-terminal HIS₆ tag (SEQ ID NO: 3). Antigens were diluted serially into running buffer, injected at 30 μl/min for 240 s and allowed to dissociate for 600 s or 14000 s. Prolonging the monitoring of dissociation phase for antigens that dissociates slowly with kd approaching 1E-5 s⁻¹ is crucial to get a robust value for the dissociation rate. The CM4 surface was regenerated after each injection cycle of analyte via injection of 10 mM Glycine, pH 2.1. This regeneration step removed the anti-TFPI bispecific molecule and any bound antigen from the immobilized capture antibody surface, and allowed for the subsequent binding of the next interaction sample pair.

[6] = target: TFPI KPI-2 fragment spanning the KPI-2 domain of TFPI with a C-terminal HIS6 tag (human, UniProt P10646 119-178); assay: as above
Description: as §1

[7] = target: TFPI (form not stated, Example 5) (UniProt P10646 29-304, limits assumed); assay: method not stated

| Binder | EC50; thrombin generation, FVIII-neutralised plasma + 10 nM full-length TFPI alpha; single experiment [1] | EC50 of the thrombin generation response in FVIII-neutralised plasma + 10 nM full-length TFPI alpha [1] | EC50 (half-maximal response); thrombin generation, FVIII-neutralised plasma, no TFPI added; four-parameter fit, average of 2 experiments [2] | EC50 of the thrombin generation response in FVIII-neutralised plasma without added TFPI [2] | Peak (nM); thrombin generation, FVIII-neutralized plasma + 10 nM TFPI alpha; 100.0 nM mAb [3] | ttPeak (min); thrombin generation, FVIII-neutralized plasma + 10 nM TFPI alpha; 100.0 nM mAb [3] | Peak (nM); thrombin generation, FVIII-neutralized plasma, no TFPI added; 10.0 nM mAb [4] | ttPeak (min); thrombin generation, FVIII-neutralized plasma, no TFPI added; 10.0 nM mAb [4] | Kd [5] | koff [5] | kon [5] | Kd [6] | koff [6] | kon [6] | fold lower TFPI binding affinity than mAb 2021 [7] |
| --- | --- | --- | --- | --- | --- | --- | --- | --- | --- | --- | --- | --- | --- | --- | --- |
| B1 | 9.5 nM | 9.5 nM | 1.1 nM | 1.1 nM | 177 nM | 7 min | 182 nM | 6.9 min | 0.3 nM | 0.0001 s⁻¹ | 400000 M⁻¹ s⁻¹ | 0.02 nM | 8e-05 s⁻¹ | 5e+06 M⁻¹ s⁻¹ |  |
| B2 |  |  |  |  |  |  |  |  | 0.9 nM | 0.0003 s⁻¹ | 300000 M⁻¹ s⁻¹ | 0.01 nM | 6e-05 s⁻¹ | 4e+06 M⁻¹ s⁻¹ |  |
| B3 |  |  |  |  |  |  |  |  |  |  |  |  |  |  | 10 fold |
| B4 |  |  |  |  |  |  |  |  |  |  |  |  |  |  | ~1000 fold |
